Results on two substances are retold here after article PMC6855452.

Where only a bound is given, the exact number is not on record here.

Experiment [1] addresses LY6A (C57BL/6J allele), expressed from Ly6a cDNA in HEK293T cells (mouse (C57BL/6J)) (UniProt P05533). Briefly: bound vector genome assay (qPCR of viral genomes on cells); HEK293T cells transfected with Ly6 cDNA or left untransfected; 48 h later chilled to 4°C, recombinant AAV at 10^5 vg/cell for one hour, washed three times with cold PBS; vector genomes normalized to cell genomes. (In qPCR the cycle at which signal appears reflects the starting amount.)

The target of experiment [2] is LY6A, endogenous on primary brain microvascular endothelial cells of C57BL/6 mice (mouse (endogenous in C57BL/6 BMVECs)) (UniProt P05533). Briefly: bound vector genome assay (qPCR of viral genomes on cells); primary BMVECs of C57BL/6 mice treated with SaCas9 vectors with sgRNAs against Ly6a or Ly6c1 or no sgRNA; 4°C, one hour, AAV at 10^6 vg/cell; normalized to cells treated with a vector lacking a sgRNA.

For “AAV-PHP.B capsid (engineered AAV9 variant) (from UniProt Q6JC40 1-736; Q6JC40 1-736; Q6JC40 1-736) (complex)”, the fold increase in binding to cells on Ly6a expression in experiment [1] is above 50 fold.

In the case of “AAV-PHP.eB capsid (engineered AAV9 variant, further evolved from AAV-PHP.B) (from UniProt Q6JC40 1-736; Q6JC40 1-736; Q6JC40 1-736) (complex)”, in experiment [2], the reduction in binding to BMVECs on Ly6a disruption (~50% reduction of LY6A) was 50%. For the same substance, the fold increase in binding to cells on Ly6a expression in experiment [1] is above 50 fold.
